Experimental data reported in the Human Domainome abundance scans (Beltran et al. 2025).
± gives the uncertainty stated by the source.

B1: Histone-lysine N-methyltransferase SETD2, residues 2382 to 2430; numbered along this chain, Q9BYW2 (parent)
chain: SPPKPKTIVLPPNWKTARDPEGKIYYYHVITRQTQWDPPTWESPGDDAS

Variants of: B1
Assay: abundance fitness (aPCA) (normalised: wild type 0, dead -1); higher = more abundant; growth selection in yeast, the domain comes from the species named
Details: Homo sapiens

Variant | abundance fitness
SPPKPKTIVLPPNWKHARDPEGKIYYYHVITRQTQWDPPTWESPGDDAS | 0.095 ± 0.11
SPPKPKTIVLPPNWKIARDPEGKIYYYHVITRQTQWDPPTWESPGDDAS | -0.15 ± 0.075
SPPKPKTIVLPPNWKKARDPEGKIYYYHVITRQTQWDPPTWESPGDDAS | -0.059 ± 0.092
SPPKPKTIVLPPNWKLARDPEGKIYYYHVITRQTQWDPPTWESPGDDAS | 0.049 ± 0.048
SPPKPKTIVLPPNWKMARDPEGKIYYYHVITRQTQWDPPTWESPGDDAS | 0.218 ± 0.039
SPPKPKTIVLPPNWKNARDPEGKIYYYHVITRQTQWDPPTWESPGDDAS | -0.723 ± 0.15
SPPKPKTIVLPPNWKPARDPEGKIYYYHVITRQTQWDPPTWESPGDDAS | -0.341 ± 0.12
SPPKPKTIVLPPNWKQARDPEGKIYYYHVITRQTQWDPPTWESPGDDAS | 0.136 ± 0.064
SPPKPKTIVLPPNWKRARDPEGKIYYYHVITRQTQWDPPTWESPGDDAS | -0.052 ± 0.045
SPPKPKTIVLPPNWKSARDPEGKIYYYHVITRQTQWDPPTWESPGDDAS | 0.168 ± 0.035
SPPKPKTIVLPPNWKWARDPEGKIYYYHVITRQTQWDPPTWESPGDDAS | -0.026 ± 0.052
SPPKPKTIVLPPNWKYARDPEGKIYYYHVITRQTQWDPPTWESPGDDAS | -0.164 ± 0.1
SPPKPKTIVLPPNWKTCRDPEGKIYYYHVITRQTQWDPPTWESPGDDAS | -0.146 ± 0.078
SPPKPKTIVLPPNWKTDRDPEGKIYYYHVITRQTQWDPPTWESPGDDAS | -0.092 ± 0.054
SPPKPKTIVLPPNWKTERDPEGKIYYYHVITRQTQWDPPTWESPGDDAS | -0.301 ± 0.061
SPPKPKTIVLPPNWKTFRDPEGKIYYYHVITRQTQWDPPTWESPGDDAS | -0.543 ± 0.15
SPPKPKTIVLPPNWKTGRDPEGKIYYYHVITRQTQWDPPTWESPGDDAS | -0.022 ± 0.034
SPPKPKTIVLPPNWKTHRDPEGKIYYYHVITRQTQWDPPTWESPGDDAS | -0.728 ± 0.41
SPPKPKTIVLPPNWKTIRDPEGKIYYYHVITRQTQWDPPTWESPGDDAS | -0.184 ± 0.05
SPPKPKTIVLPPNWKTKRDPEGKIYYYHVITRQTQWDPPTWESPGDDAS | -0.131 ± 0.1
SPPKPKTIVLPPNWKTLRDPEGKIYYYHVITRQTQWDPPTWESPGDDAS | -0.212 ± 0.066
SPPKPKTIVLPPNWKTMRDPEGKIYYYHVITRQTQWDPPTWESPGDDAS | -0.024 ± 0.08

Variant | abundance fitness
SPPKPKTIVLPPNWKTNRDPEGKIYYYHVITRQTQWDPPTWESPGDDAS | 0.038 ± 0.14
SPPKPKTIVLPPNWKTPRDPEGKIYYYHVITRQTQWDPPTWESPGDDAS | -0.747 ± 0.042
SPPKPKTIVLPPNWKTQRDPEGKIYYYHVITRQTQWDPPTWESPGDDAS | -0.845 ± 0.28
SPPKPKTIVLPPNWKTRRDPEGKIYYYHVITRQTQWDPPTWESPGDDAS | 0.023 ± 0.036
SPPKPKTIVLPPNWKTSRDPEGKIYYYHVITRQTQWDPPTWESPGDDAS | -0.155 ± 0.058
SPPKPKTIVLPPNWKTTRDPEGKIYYYHVITRQTQWDPPTWESPGDDAS | -0.217 ± 0.074
SPPKPKTIVLPPNWKTVRDPEGKIYYYHVITRQTQWDPPTWESPGDDAS | -0.242 ± 0.045
SPPKPKTIVLPPNWKTWRDPEGKIYYYHVITRQTQWDPPTWESPGDDAS | -0.77 ± 0.13
SPPKPKTIVLPPNWKTYRDPEGKIYYYHVITRQTQWDPPTWESPGDDAS | -0.128 ± 0.07
SPPKPKTIVLPPNWKTAADPEGKIYYYHVITRQTQWDPPTWESPGDDAS | -0.467 ± 0.07
SPPKPKTIVLPPNWKTADDPEGKIYYYHVITRQTQWDPPTWESPGDDAS | -0.817 ± 0.31
SPPKPKTIVLPPNWKTAEDPEGKIYYYHVITRQTQWDPPTWESPGDDAS | -0.248 ± 0.1
SPPKPKTIVLPPNWKTAFDPEGKIYYYHVITRQTQWDPPTWESPGDDAS | -0.424 ± 0.094
SPPKPKTIVLPPNWKTAGDPEGKIYYYHVITRQTQWDPPTWESPGDDAS | -0.79 ± 0.095
SPPKPKTIVLPPNWKTAHDPEGKIYYYHVITRQTQWDPPTWESPGDDAS | -0.286 ± 0.26
SPPKPKTIVLPPNWKTAIDPEGKIYYYHVITRQTQWDPPTWESPGDDAS | -0.095 ± 0.15
SPPKPKTIVLPPNWKTAKDPEGKIYYYHVITRQTQWDPPTWESPGDDAS | -0.072 ± 0.062
SPPKPKTIVLPPNWKTALDPEGKIYYYHVITRQTQWDPPTWESPGDDAS | -0.404 ± 0.045
SPPKPKTIVLPPNWKTAMDPEGKIYYYHVITRQTQWDPPTWESPGDDAS | -0.086 ± 0.059
SPPKPKTIVLPPNWKTANDPEGKIYYYHVITRQTQWDPPTWESPGDDAS | 0.099 ± 0.2
SPPKPKTIVLPPNWKTAPDPEGKIYYYHVITRQTQWDPPTWESPGDDAS | -0.576 ± 0.17
SPPKPKTIVLPPNWKTAQDPEGKIYYYHVITRQTQWDPPTWESPGDDAS | -0.482 ± 0.14

Variant | abundance fitness
SPPKPKTIVLPPNWKTASDPEGKIYYYHVITRQTQWDPPTWESPGDDAS | -0.543 ± 0.035
SPPKPKTIVLPPNWKTATDPEGKIYYYHVITRQTQWDPPTWESPGDDAS | -0.112 ± 0.055
SPPKPKTIVLPPNWKTAVDPEGKIYYYHVITRQTQWDPPTWESPGDDAS | -0.26 ± 0.066
SPPKPKTIVLPPNWKTAWDPEGKIYYYHVITRQTQWDPPTWESPGDDAS | -0.31 ± 0.095
SPPKPKTIVLPPNWKTAYDPEGKIYYYHVITRQTQWDPPTWESPGDDAS | -0.105 ± 0.062
SPPKPKTIVLPPNWKTARAPEGKIYYYHVITRQTQWDPPTWESPGDDAS | -0.537 ± 0.096
SPPKPKTIVLPPNWKTARCPEGKIYYYHVITRQTQWDPPTWESPGDDAS | -0.725 ± 0.16
SPPKPKTIVLPPNWKTAREPEGKIYYYHVITRQTQWDPPTWESPGDDAS | -0.314 ± 0.08
SPPKPKTIVLPPNWKTARHPEGKIYYYHVITRQTQWDPPTWESPGDDAS | 0.027 ± 0.2
SPPKPKTIVLPPNWKTARIPEGKIYYYHVITRQTQWDPPTWESPGDDAS | -0.584 ± 0.26
SPPKPKTIVLPPNWKTARLPEGKIYYYHVITRQTQWDPPTWESPGDDAS | -0.407 ± 0.068
SPPKPKTIVLPPNWKTARMPEGKIYYYHVITRQTQWDPPTWESPGDDAS | -0.172 ± 0.089
SPPKPKTIVLPPNWKTARPPEGKIYYYHVITRQTQWDPPTWESPGDDAS | -0.426 ± 0.1
SPPKPKTIVLPPNWKTARQPEGKIYYYHVITRQTQWDPPTWESPGDDAS | -0.442 ± 0.039
SPPKPKTIVLPPNWKTARRPEGKIYYYHVITRQTQWDPPTWESPGDDAS | -0.535 ± 0.042
SPPKPKTIVLPPNWKTARSPEGKIYYYHVITRQTQWDPPTWESPGDDAS | -0.103 ± 0.043
SPPKPKTIVLPPNWKTARTPEGKIYYYHVITRQTQWDPPTWESPGDDAS | 0.102 ± 0.069
SPPKPKTIVLPPNWKTARVPEGKIYYYHVITRQTQWDPPTWESPGDDAS | -0.404 ± 0.048
SPPKPKTIVLPPNWKTARWPEGKIYYYHVITRQTQWDPPTWESPGDDAS | -0.889 ± 0.095
SPPKPKTIVLPPNWKTARYPEGKIYYYHVITRQTQWDPPTWESPGDDAS | -0.601 ± 0.095
SPPKPKTIVLPPNWKTARDAEGKIYYYHVITRQTQWDPPTWESPGDDAS | -0.166 ± 0.031
SPPKPKTIVLPPNWKTARDCEGKIYYYHVITRQTQWDPPTWESPGDDAS | -0.348 ± 0.043

Variant | abundance fitness
SPPKPKTIVLPPNWKTARDDEGKIYYYHVITRQTQWDPPTWESPGDDAS | -0.122 ± 0.038
SPPKPKTIVLPPNWKTARDEEGKIYYYHVITRQTQWDPPTWESPGDDAS | -0.074 ± 0.053
SPPKPKTIVLPPNWKTARDFEGKIYYYHVITRQTQWDPPTWESPGDDAS | -0.398 ± 0.059
SPPKPKTIVLPPNWKTARDGEGKIYYYHVITRQTQWDPPTWESPGDDAS | -0.03 ± 0.031
SPPKPKTIVLPPNWKTARDHEGKIYYYHVITRQTQWDPPTWESPGDDAS | -0.157 ± 0.038
SPPKPKTIVLPPNWKTARDIEGKIYYYHVITRQTQWDPPTWESPGDDAS | -0.165 ± 0.045
SPPKPKTIVLPPNWKTARDKEGKIYYYHVITRQTQWDPPTWESPGDDAS | 0.122 ± 0.039
SPPKPKTIVLPPNWKTARDLEGKIYYYHVITRQTQWDPPTWESPGDDAS | -0.223 ± 0.032
SPPKPKTIVLPPNWKTARDMEGKIYYYHVITRQTQWDPPTWESPGDDAS | -0.078 ± 0.034
SPPKPKTIVLPPNWKTARDNEGKIYYYHVITRQTQWDPPTWESPGDDAS | -0.008 ± 0.035
SPPKPKTIVLPPNWKTARDQEGKIYYYHVITRQTQWDPPTWESPGDDAS | 0.015 ± 0.045
SPPKPKTIVLPPNWKTARDREGKIYYYHVITRQTQWDPPTWESPGDDAS | 0.017 ± 0.032
SPPKPKTIVLPPNWKTARDSEGKIYYYHVITRQTQWDPPTWESPGDDAS | -0.106 ± 0.036
SPPKPKTIVLPPNWKTARDTEGKIYYYHVITRQTQWDPPTWESPGDDAS | 0.006 ± 0.033
SPPKPKTIVLPPNWKTARDVEGKIYYYHVITRQTQWDPPTWESPGDDAS | -0.31 ± 0.033
SPPKPKTIVLPPNWKTARDWEGKIYYYHVITRQTQWDPPTWESPGDDAS | -0.367 ± 0.054
SPPKPKTIVLPPNWKTARDYEGKIYYYHVITRQTQWDPPTWESPGDDAS | -0.331 ± 0.052
SPPKPKTIVLPPNWKTARDPAGKIYYYHVITRQTQWDPPTWESPGDDAS | -0.126 ± 0.065
SPPKPKTIVLPPNWKTARDPCGKIYYYHVITRQTQWDPPTWESPGDDAS | -0.134 ± 0.11
SPPKPKTIVLPPNWKTARDPDGKIYYYHVITRQTQWDPPTWESPGDDAS | -0.136 ± 0.12
SPPKPKTIVLPPNWKTARDPFGKIYYYHVITRQTQWDPPTWESPGDDAS | -0.115 ± 0.17
SPPKPKTIVLPPNWKTARDPGGKIYYYHVITRQTQWDPPTWESPGDDAS | -0.003 ± 0.035

Variant | abundance fitness
SPPKPKTIVLPPNWKTARDPHGKIYYYHVITRQTQWDPPTWESPGDDAS | -0.737 ± 0.28
SPPKPKTIVLPPNWKTARDPIGKIYYYHVITRQTQWDPPTWESPGDDAS | -0.316 ± 0.21
SPPKPKTIVLPPNWKTARDPKGKIYYYHVITRQTQWDPPTWESPGDDAS | 0.134 ± 0.068
SPPKPKTIVLPPNWKTARDPLGKIYYYHVITRQTQWDPPTWESPGDDAS | -0.487 ± 0.035
SPPKPKTIVLPPNWKTARDPMGKIYYYHVITRQTQWDPPTWESPGDDAS | -0.059 ± 0.06
SPPKPKTIVLPPNWKTARDPPGKIYYYHVITRQTQWDPPTWESPGDDAS | -0.989 ± 0.14
SPPKPKTIVLPPNWKTARDPQGKIYYYHVITRQTQWDPPTWESPGDDAS | -0.217 ± 0.063
SPPKPKTIVLPPNWKTARDPRGKIYYYHVITRQTQWDPPTWESPGDDAS | -0.043 ± 0.053
SPPKPKTIVLPPNWKTARDPSGKIYYYHVITRQTQWDPPTWESPGDDAS | 0.098 ± 0.039
SPPKPKTIVLPPNWKTARDPTGKIYYYHVITRQTQWDPPTWESPGDDAS | -0.229 ± 0.095
SPPKPKTIVLPPNWKTARDPVGKIYYYHVITRQTQWDPPTWESPGDDAS | -0.275 ± 0.093
SPPKPKTIVLPPNWKTARDPWGKIYYYHVITRQTQWDPPTWESPGDDAS | -0.345 ± 0.048
SPPKPKTIVLPPNWKTARDPYGKIYYYHVITRQTQWDPPTWESPGDDAS | -0.552 ± 0.18
SPPKPKTIVLPPNWKTARDPEAKIYYYHVITRQTQWDPPTWESPGDDAS | -0.844 ± 0.12
SPPKPKTIVLPPNWKTARDPECKIYYYHVITRQTQWDPPTWESPGDDAS | -0.882 ± 0.17
SPPKPKTIVLPPNWKTARDPEDKIYYYHVITRQTQWDPPTWESPGDDAS | -0.128 ± 0.079
SPPKPKTIVLPPNWKTARDPEEKIYYYHVITRQTQWDPPTWESPGDDAS | -1.1 ± 0.19
SPPKPKTIVLPPNWKTARDPEFKIYYYHVITRQTQWDPPTWESPGDDAS | -0.733 ± 0.36
